Key:
[1] = target: carrier free RGMc (R&D Systems) (human) (UniProt Q6ZVN8); experiment: direct EIA: carrier-free RGMc coated at 0.5 ug/mL; sample at 2 ug/ml; goat anti-mouse IgG-HRPO
[2] = target: carrier free RGMa (R&D Systems) (UniProt Q96B86); experiment: direct EIA: carrier-free RGMa coated at 0.5 ug/mL; sample at 2 ug/ml; goat anti-mouse IgG-HRPO
[3] = target: carrier free RGMb (R&D Systems) (UniProt Q6NW40); experiment: direct EIA: carrier-free RGMb coated at 0.5 ug/mL; sample at 2 ug/ml; goat anti-mouse IgG-HRPO
Chain of carrier free RGMb (R&D Systems) (Q6NW40 46-413 limits assumed): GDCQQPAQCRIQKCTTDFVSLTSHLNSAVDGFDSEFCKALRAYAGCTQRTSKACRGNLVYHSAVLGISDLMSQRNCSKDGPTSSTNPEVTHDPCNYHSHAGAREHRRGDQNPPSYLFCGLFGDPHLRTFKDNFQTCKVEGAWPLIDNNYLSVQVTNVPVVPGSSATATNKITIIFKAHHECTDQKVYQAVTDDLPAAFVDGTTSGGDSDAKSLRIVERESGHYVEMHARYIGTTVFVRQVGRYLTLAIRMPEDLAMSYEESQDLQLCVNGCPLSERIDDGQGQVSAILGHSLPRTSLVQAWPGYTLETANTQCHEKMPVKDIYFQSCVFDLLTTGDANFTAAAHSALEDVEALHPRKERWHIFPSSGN

Chain of carrier free RGMa (R&D Systems) (Q96B86 48-422 limits assumed): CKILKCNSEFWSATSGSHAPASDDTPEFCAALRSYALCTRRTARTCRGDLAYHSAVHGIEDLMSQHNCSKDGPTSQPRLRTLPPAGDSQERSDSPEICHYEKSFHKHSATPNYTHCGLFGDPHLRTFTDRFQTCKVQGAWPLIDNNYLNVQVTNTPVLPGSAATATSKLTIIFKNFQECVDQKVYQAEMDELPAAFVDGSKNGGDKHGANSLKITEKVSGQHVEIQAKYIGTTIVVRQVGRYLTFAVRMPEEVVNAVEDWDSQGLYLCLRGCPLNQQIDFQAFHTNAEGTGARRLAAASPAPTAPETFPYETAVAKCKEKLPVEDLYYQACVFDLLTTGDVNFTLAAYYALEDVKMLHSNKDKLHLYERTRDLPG
Chain of carrier free RGMc (R&D Systems) (human) (Q6ZVN8 36-400 limits assumed): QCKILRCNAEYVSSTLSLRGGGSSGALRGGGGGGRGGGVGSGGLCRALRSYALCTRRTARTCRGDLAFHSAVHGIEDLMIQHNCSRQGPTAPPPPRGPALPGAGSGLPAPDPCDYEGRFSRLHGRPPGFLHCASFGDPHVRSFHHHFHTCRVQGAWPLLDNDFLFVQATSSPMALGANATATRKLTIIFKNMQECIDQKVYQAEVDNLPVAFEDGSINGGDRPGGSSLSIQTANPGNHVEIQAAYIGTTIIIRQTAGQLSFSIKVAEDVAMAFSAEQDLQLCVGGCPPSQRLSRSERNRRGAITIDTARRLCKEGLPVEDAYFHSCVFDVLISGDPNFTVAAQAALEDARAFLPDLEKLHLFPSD

absorbance at 492 nm [1]: 0.14
absorbance at 492 nm [2]: 0.1
absorbance at 492 nm [3]: 0.09
Substance: negative control: purified mouse mAb from an irrelevant / different antigen system (antibody)

From US20130330359A1
